The text below walks through data of patent US20110213337A1 (BOARD OF TRUSTEES OF THE UNIVERSITY OF ARKANSAS, published 2011).

The target in this experiment is T1, HLA A2.1 (A*0201) (human).
T1 construct: whole, on cells; Endogenous HLA class I molecule of T2 cells and of EBV-transformed LCL; also called HLA A0201
The experiment in a line: T2 cell HLA A2.1 stabilisation assay, flow cytometry. The text has this: This technique employs T2 cells which are peptide transporter-deficient and thus express low endogenous HLA class I levels due to inability to load peptide and stabilize HLA class I folding for surface expression.

B1: Hepsin peptide 170-178 (peptide)
peptide: SLGRWPWQV
notes: Synthesized peptide added to T2 cells or loaded onto LCL; also called hepsin 170-178
Turning to B1, the binding result is “binds”.
